Data set [1] concerns the target T1, GgaR (YegW) (Escherichia coli K-12 W3110) (UniProt P0ACM5).
T1 sequence: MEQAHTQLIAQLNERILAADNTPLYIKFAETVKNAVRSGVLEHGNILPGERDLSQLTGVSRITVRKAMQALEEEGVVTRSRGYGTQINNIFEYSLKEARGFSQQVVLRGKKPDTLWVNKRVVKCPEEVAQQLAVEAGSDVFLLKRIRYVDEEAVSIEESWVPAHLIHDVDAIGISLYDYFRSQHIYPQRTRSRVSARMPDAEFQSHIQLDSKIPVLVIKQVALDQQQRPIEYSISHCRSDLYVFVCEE
Nature of the data set: EMSA. The note with it: EMSA: binding buffer composition and pH not given; 37 C, 30 min (+30 min with effector); 0.5 pmol probe; 5% PAGE, GelRed stain. For orientation: A gel shift assay detects complexes by their altered migration in electrophoresis.

For the next data set, the target named is GgaR (YegW) (Escherichia coli, UniProt P0ACM5). The data set is described as follows: gel shift assay: loss of GgaR-DNA complex. It is filed as binding. As to conditions: 2.0 pmol GgaR, 0.5 pmol fbaB/yegT spacer DNA probe, 10-100 uM ADPG, 37 °C; effector (inducer) releasing the repressor from DNA.

As for “TTTCTGATGAATCGAGCCAACAGAAAACGCTGAAAAAACATCCAAAAGATGGAAAAACTCGCCCGTAACGACCAGGATTATGATTGCCCGCAAAAGGCGGGCCAGGACAATCCATAGCCGATATCCAATCGGAATTTACGGGAGCATAGTAATGACAGATATTGCGCAGTTGCTTGGCAAAGACGCCGACAACCTTTTACAGCACCGTTGTATGACAATTCCTTCTGACCAGCTTTATCTCCCCGGACATGACTACGTAGACCGCGTAATGATTG (double strand) [probe-1]”, the binding result in data set [1] was “no binding”.

As to “AAATGGATATTAAAGTCATGCTCGGCCTGGATGCGCTGATCCTGCTGCGCGATAAAAACTTCCTCGTCTTTTTCTTCTGTTCATTCCTGTTTGCGATGCCACTAGCGTTCTATTACATCTTTGCCAACGGTTATCTGACCGAAGTTGGCATGAAAAACGCCACCGGCTGGATGACGCTCGGCCAGTTCTCTGAAATCTTCTTTATGCTGGCATTGCCGTTTTTCACTAAACGCTTTGGTATCAAAAAGGTATTATTGCTTGGTCTGGTCACCGCTGCGATCCGCTATGGCTTCTTTAT (double strand) [probe-5]”, the binding result in data set [1] is given as “binds more weakly”.

For the compound `Nc1ncnc2c1ncn2[C@@H]1O[C@H](COP(=O)(O)OP(=O)(O)O[C@H]2O[C@H](CO)[C@@H](O)[C@H](O)[C@H]2O)[C@@H](O)[C@H]1O` [ADPG, ADP-glucose], the “gel shift assay: loss of GgaR-DNA complex” value on GgaR (YegW) was “After adding increasing concentrations of ADPG, the complex of GgaR and the fbaB/yegT spacer”.

Turning to “AATCATAATCCTGGTCGTTACGGGCGAGTTTTTCCATCTTTTGGATGTTTTTTCAGCGTTTTCTGTTGGCTCGATTCATCAGAAAAAATGTTAGCGCGGTCAAGTTTTCACCGCAAAGGTATTTAAAAGGTATTATTAAGTGGTATTGTCATCGCGTACCTTACATTACCTGTCATGAAGGAATTAAAAGATGAAAACAACAGCAAAGCTGTCGTTCATGATGTTTGTTGAATGGTTTATC (double strand) [probe-2]”, in data set [1], the binding entry was “binds”.

Values taken from paper PMC10819704, “Regulatory Role of GgaR (YegW) for Glycogen Accumulation in Escherichia coli K-12” (Microorganisms, 2024).
